This passage reports binding result and OD450 nm results from patent publication US20210347873A1 (SHANGHAI PHARMAEXPLORER, published 2021).

Assay [1] concerns the target T1, human APRIL protein (human, UniProt O75888 105-250, limits assumed).
T1 construct: Bought protein; also called recombinant APRIL protein
T1 sequence (looked up): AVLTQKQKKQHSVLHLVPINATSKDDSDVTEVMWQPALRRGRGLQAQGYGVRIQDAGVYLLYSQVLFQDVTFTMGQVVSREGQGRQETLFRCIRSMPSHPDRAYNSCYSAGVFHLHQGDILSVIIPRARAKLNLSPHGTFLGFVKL
Description: ELISA, coated APRIL. Here is the method:
To test whether the BLyS antibody cross-reacted with human APRIL protein, APRIL protein (purchased from R & D Systems) was first diluted to a final concentration of 1.0 μg/mL with PBS, and then 50 μL of which per well was aliquoted into a 96-well ELISA plate, and the plate was subsequently sealed with plastic film and incubated at 4° C. overnight. On the next day the plate was rinsed four times with the plate washing buffer [PBS buffer containing 0.0500 (v/v) Tween20] and a blocking solution [PBS buffer containing 0.05 (v/v) Tween20 and 1 (w/w) BSA] was added, then the protein was blocked at 37° C. for 2 hours. The blocking solution was removed and 100 μL per well of the lead antibodies prepared in Embodiment 1 and 2 were added in. After incubation for 1 hour at 37° C., the plate was rinsed four times with the plate washing buffer [PBS buffer containing 0.05 (v/v) Tween20]. HRP-labeled (horseradish peroxidase) secondary antibody (purchased from Sigma) was added in and incubated at 37° C. for 1 hour. The plate was then rinsed four times with the plate washing buffer [PBS buffer containing 0.050 (v/v) Tween20]. […] A₄₅₀ₙₘ values were read via an ELISA plate reader (SpectraMax M5e purchased from Molecular Devices) and the results were shown in FIGS. 6A-6B and Table 11. […]
In general terms: In an ELISA, binding on a coated surface is turned into a signal by an enzyme label.

The target of assay [2] is T1, human APRIL protein. Description: ELISA, coated APRIL; antibody 13.3 nM. The essentials: (§1)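 Cross-reactivity of BLyS antibodies with human APRIL is measured by ELISA. Wells are coated overnight at 4 °C with 1.0 μg/mL APRIL and blocked 2 h at 37 °C; antibodies, then HRP secondary, are each applied 1 h at 37 °C, and TMB colour is read at 450 nm.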
Assay [3] has as its target T1, human APRIL protein. As to the kind of experiment: ELISA, coated APRIL; antibody 0.0213 nM. A digest of the protocol: as §1
Assay [4] addresses T1, human APRIL protein. As to the kind of experiment: ELISA, coated APRIL; antibody 66.7 nM. The essentials:
as §1

Assay [5] deals with T1, human APRIL protein. Description: ELISA, coated APRIL; antibody 0.534 nM. The essentials:
as §1

In assay [6] the target is T1, human APRIL protein. Description: ELISA, coated APRIL; antibody 0 nM (blank). The essentials: as §1
Assay [7] deals with T1, human APRIL protein. As to the kind of experiment: ELISA, coated APRIL; antibody 0.107 nM. The essentials:
as §1

The target in assay [8] is T1, human APRIL protein. As to the kind of experiment: ELISA, coated APRIL; antibody 2.67 nM. The essentials: as §1
Assay [9] concerns the target T1, human APRIL protein. Description: ELISA, coated APRIL; antibody 0.00427 nM. The essentials: as §1

B1: 67A2E1D10 (antibody, V domains shown)
VH: EVQLQQSGAELVKPGASVKLSCTASGFNIKNYYMHWVKQRTEEGLEWIGRIDPEDGETKYAPKFQAKATITADTSSNTAYLQLSSLTSEDTAVYFCARKGYYGNYGAWFAYWGQGTLVTVSA
VL: DIQMTQSPASLSVSVGETVTITCRASEDLYSNLAWYQQKQGKSPQLLVYAATFLADGVPSRFSGSGSGTQYSLKINSLQSEDFGNYYCQHFWGTPPTFGGGTKLEIK
notes: Mouse hybridoma antibody purified on Protein G
For B1, the binding result with human APRIL protein [1] is given as “no binding (tested: 66.7 nM)”. The OD450 nm in the assay with human APRIL protein [2] came out at 0.0898; in the assay with human APRIL protein [3], 0.0563; in the assay with human APRIL protein [4], 0.264; with human APRIL protein [5], 0.058; with human APRIL protein [6], 0.053; in the assay with human APRIL protein [7] it was 0.0588. Besides, the OD450 nm with human APRIL protein [8] was determined as 0.0673; with human APRIL protein [9], 0.0553.
